This note sets out measurements from patent publication US20030084466A1, “System and method for controlling male fertility” (priority 2000, published 2003).

For this experiment, the system named is Akt. Description: SCF-induced Akt activation (Akt in vitro kinase assay, histone H2B substrate) in primary bone marrow-derived mast cells. In kind it is cell-based, mouse.

B1: SCF: murine stem cell factor (R & D Systems, Inc.), bivalent ligand of the Kit receptor (protein)
chain: KEICGNPVTDNVKDITKLVANLPNDYMITLNYVAGMDVLPSHCWLRDMVIQLSLSLTTLLDKFSNISEGLSNYSIIDKLGKIVDDLVLCMEENAPKNIKESPKRPETRSFTPEEFFSIFNRSIDAFKDFMVASDTSDCVLSSTLGPEKDSRVSVTKPFMLPPVA
With B1, the Akt activation (+/+ and loxP/loxP mast cells, 100 ng/ml murine SCF, 8 minutes, 37° C.) worked out at 5 fold. Also, where the note is “Y719F/Y719F mast cells, SCF stimulation”, the “Akt activation relative to wild type levels” value came out at 12%.
